In US20020081652A1:
Each block holds one substance with its values, some of them ahead of it.

Experiments:
[1] = target: mAb 198; assay: competition ELISA: polypeptide preincubated with mAb 198, binding of mAb 198 to coated Torpedo AChR read
[2] = target: human muscle-type AChR on TE671 cells (human) (UniProt P02708); assay: cell-based or functional assay
[3] = target: mAb 198; assay: cell-based or functional assay
[4] = target: mAb 198; assay: competition ELISA: fragment preincubated with mAb 198, binding of mAb 198 to coated Torpedo AChR read

IC50 [1]: 100 nM
Substance: Hα1-121+p3A fused to glutathione S-transferase (GST) at the N-terminus (receptor)

Substance: mAb 198 (antibody)
residual AChR on TE671 cells (α-BTX binding sites) after 3 h incubation with 1 µg/ml mAb [2]: 41%

Substance: Hα1-121 fused to glutathione S-transferase (GST) at the N-terminus (from UniProt P02708 21-141) (receptor)
protection of TE671 cells against AChR degradation induced by mAb 198 (residual α-BTX binding sites) [3]: 100 µg/mL

IC50 [1]: 180 nM | IC50 [4]: 1300 nM
Substance: Hα1-210+p3A fused to glutathione S-transferase (GST) at the N-terminus (from UniProt P08515 1-218) (receptor)
